Measurements as given in the supplement of paper PMC12042874.
± gives the uncertainty stated by the source.

Assay: amyloid nucleation score (Sup35N fusion, yeast selection) (log enrichment); library NNK3; higher = more nucleation; inactive = no reads after selection
In short: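 Sup35N was fused to peptides of 20 random codons and expressed in psi-negative yeast, which were induced with 100 μM copper sulfate for 24 hours and then grown on medium lacking adenine and uracil for 7 days at 30°C. Plasmid inserts from input and output were sequenced on Illumina. The nucleation score is the DiMSum log enrichment of output over input reads, centred on the mode score of non-aggregating sequences. Sequences with under 100 input reads were left out, and random libraries had three technical output replicates.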

Substance	amyloid nucleation score
ALCANYCFAMFSDSGLRWTV	1.01 ± 0.09
RKRAGVMGTLSN	inactive
LGGLYLLIFLRSGPRRWSGT	inactive
PFDHTSHNVVRKLLSSELLR	inactive
LYMGSRPFSVIVVRITVGSQ	inactive
DIRYLNNFDSCQYGRGFLAA	inactive
CIVLTVKCSLA	-0.669 ± 0.55
WFWRVNIMKTIGLSHSRHEG	inactive
PWKLYYNFQVLLLNAGHLML	inactive
RSCMQLVCTCPFTGTTSRMI	2.63 ± 0.055
DRYYDSLC	inactive
TTCILYPYLWCLMIHMSASN	0.891 ± 0.16
ESAYFLAYLQVLLWRVMGEL	inactive
PDYEHKVSLLEGKRAYLEHF	inactive
LWTVNRECM	inactive
PRVFGRVTSRMFLDFVLNF	0.982 ± 0.14
ICHFTLM	inactive
MILFKIEELHCQHVSHCG	inactive
DWFSAVR	inactive
YRYVNN	inactive
YLLDRLRVSDGYPLQSPWTT	inactive
EKFTMLARSKAAICLVDKSC	-0.463 ± 0.93

Substance	amyloid nucleation score
CGMLTGVIKNLDLTRRYKC	inactive
WTVIDYDKTWIYLLASVLYL	inactive
RCFFNRMRTDVYSVDSKVSF	inactive
YTVEWWVINCFGGKADL	inactive
CSCIGWLRNGDVSCNVDRAS	inactive
SPYVYRTWFRTLEYCTRDDM	inactive
HGVWRLSYVVVGCPLTEVSP	inactive
RMYLAHFCVIN	2.9 ± 0.062
CFDFSCVFLKEMQYGGETGS	1.07 ± 0.12
SISWRYATTSDVSLWIFVQT	inactive
TWNVPWE	inactive
RCGHFLYEFL	inactive
IYYPHTFIWDFVDEGVAPHY	1.56 ± 0.12
FIFYFCAVLNHYVCVWVRYL	inactive
DCYRGVSLCELFDECR	inactive
LRGAVVVSEKTRVTTQCIAR	inactive
YSHSGIRIKRLEASEYTWPS	inactive
FVNLAGLFGSRGTNLLCLGE	inactive
CSSSYMGQDHVFVSDSARCS	inactive
YNECYWK	inactive
ADFKKVSSLLRSTGLVGGFR	inactive
NTFWLGVRIDGVFGWATNLP	inactive

Substance	amyloid nucleation score
RCLSDCYVRNECTF	inactive
LAFKSDLSFNETVRKSSWLC	inactive
SVLWLVCMDCHPQKSVSCD	0.863 ± 0.25
SRNFTRHILHDLHYAGILKA	inactive
EVLSNDGAGLFFHGKKCMYI	inactive
GCFNSCILYVLRLSIASVVS	inactive
GLLAFKVLISKASVDFYNVS	-0.134 ± 0.4
VTLTLEGLDRWVNQSEIAPS	0.071 ± 0.29
MEGDLSVADSYGDQ	inactive
AASRMLWPGWNIRPSDAVVE	inactive
DIELLGKARGYSLEQG	inactive
SSVGTAFLYYRKYGICADG	inactive
YLSNLYSPKRNWAAVL	inactive
FMSTDTLRKCLSACMFGPIP	0.021 ± 0.31
LVNTCKNSFLVVLHF	2.09 ± 0.065
RLLFFLDRKDLDAGGVFSKG	inactive
LHCFIAQFMQRYFREWSGNG	inactive
CLISQFVY	inactive
FGRVNCSSNYRNKMISSTRW	inactive
WWIARIRMHGCCDVYLGQHR	2.6 ± 0.087
